These results are taken from patent US20050255554A1.

The assay concerns the target α-amylase. Kind of assay: cell-based or functional assay.

As for “thioredoxin/90-mer ELP/tendamistat fusion protein (from UniProt P01092 31-104)”, the α-amylase inhibition activity (colorimetric α-amylase inhibition assay) was found to be 2 fold.
